In US20240383986A1 (OXFORD UNIVERSITY INNOVATION, published 2024):
Positions count from the first letter of the chain named.

B1: 110 (VR12112) (antibody, V domains shown)
VH: QSVEESGGRLVTPGTPLTLTCTVSGFSLSSYAMIWVRQAPGKGLEWIGIINSSDNTHYATWAKGRFTISKTSTTVDLKITSPTTEDTATYFCARDPYDYGYGWYFDLWGPGTLVTVSS
VL: AQVLTQTPSPVSAAVGGTVTINCQASQSVFNNKNLAWYQQKPGQPPKLLIYKASTLASGVSSRFKGSGSGTQFALTISGVQCDDAATYYCQGEFSCSSTDCVTFGGGTEVVVK
B2: 111 (VR12113) (antibody, V domains shown)
VH: QSVEESGGRLVTPGTPLTLTCTASGFSLSTYAMSWVRQAPGKGLEWIGIISSSGSTYYASWAKGRFTISKTSTTVDLKITSPTTEDTATYFCARETWYWLDLWGQGTLVTVSS
VL: AVEMTQTPASVSAAVGGTVTINCQASEDIYSNLAWYQQKPGQPPKLLIYGASTLASGVPSRFKGSGSGTEYTLTISGVQCDDAATYYCQCAYDSSSYGTPFGGGTEVVVK
B3: 77A (VR11851) (antibody, V domains shown)
VH: QSVEESGGRLVTPGTPLTLTCTVSGFSLSSYAMSWVRQAPGKGLEWIGIISSSGTTYYASWAKGRFTISKTSTTVDLKITSPTTEDTATYFCARVDYYSSGWGGLWGPGTLVTVSS
VL: B2 VL with V11M, N22K, A91T, S94T, T99N, P100T, V107M, K110E
B4: 116 (VR12117) (antibody, V domains shown)
VH: QSVEESGGRLVTPGTPLTLTCTVSGFSLSNYAMSWVRQAPGKGLEWIGIIYTTGFTYYASWVKGRFTISKTSTTVDLKITSPTTEDTATYFCARGLATYVSPPTRLDLWGQGTLVTVSS
VL: AQVLTQTPSPVSAAVGGTVTINCQASQSIYNSKNLAWYQQKPGQPPKLLIYSASTLASGVPSRFKGSGSGTQFTLTISDLECDDAATYYCQGEFSCSSVDCATFGGGTEVVVK
notes: also called OX116

Experiments:
[1] = target: human CD1a expressed on cells (with human β2M) (human) (UniProt P06126)
[2] = target: human CD1a expressed on cells (with human β2M) (human) (UniProt P06126); assay: flow cytometry of ear skin cells of a CD1a transgenic mouse given isotype control (row 'CD1a : iso'), HI149 staining; the WT mouse panel prints 0
[3] = target: human CD1a expressed on cells (with human β2M) (human) (UniProt P06126); assay: flow cytometry of ear skin cells of a CD1a transgenic mouse given antibody 116 100 µg i.p. on days 0, 2 and 4 (row 'CD1a : OX116'), HI149 staining on day 5; the cloud lies on the lower edge of the gate
[4] = target: human CD1a expressed on cells (with human β2M) (human) (UniProt P06126); assay: flow cytometry of ear skin cells of a CD1a transgenic mouse given isotype control (panel 'CD1a : iso'), SK9 staining; the WT mouse panel prints 1.30
[5] = target: human CD1a expressed on cells (with human β2M) (human) (UniProt P06126); assay: flow cytometry of ear skin cells of a CD1a transgenic mouse given antibody 116 100 µg i.p. on days 0, 2 and 4 (panel 'CD1a : OX116'), SK9 staining on day 5
[6] = target: human CD1a expressed on cells (with human β2M) (human, UniProt P06126 17-327; P61769 21-119); assay: cell-based or functional assay
[7] = target: T1, human CD1b expressed on HEK-293 cells (with human β2M) (human, UniProt P29016 18-333; P61769 21-119); assay: flow cytometry, transfected HEK-293 cells
T1 construct: whole, on cells; also called HEK-CD1b

[8] = target: T2, human CD1c expressed on HEK-293 cells (with human β2M) (human, UniProt P29017 18-333; P61769 21-119); assay: flow cytometry, transfected HEK-293 cells
T2 construct: whole, on cells; also called HEK-CD1c

[9] = target: T3, human CD1d expressed on HEK-293 cells (with human β2M) (human, UniProt P15813 20-335; P61769 21-119); assay: flow cytometry, transfected HEK-293 cells
T3 construct: whole, on cells; also called HEK-CD1d

Molecule | IC50 of inhibition of the polyclonal T cell IFNγ ELISpot response to CD1a-K562 (n=6 donors) [1] | IC50 of inhibition of the polyclonal T cell IFNγ ELISpot response to CD1a-K562 (n=6 donors) [6] | binding result [7] | binding result [8] | binding result [9] | also measured
HI149 (antibody) | 1.14 µg/mL | – | – | – | – | CD1a+ gate (percent of plotted cells) [2]: 82.2%; CD1a+ gate (percent of plotted cells) [3]: 46.6%
OKT6 (antibody) | 1.97 µg/mL | – | – | – | – | –
SK9 (antibody) | 6960 µg/mL | – | – | – | – | CD1a+ gate (percent of plotted cells) [4]: 84.9%; CD1a+ gate (percent of plotted cells) [5]: 87.4%
B1 | – | 0.155 µg/mL | no binding (tested: up to 100 µg/ml) | no binding (tested: up to 100 µg/ml) | no binding (tested: up to 100 µg/ml) | –
B2 | – | 1.04 µg/mL | no binding (tested: up to 100 µg/ml) | no binding (tested: up to 100 µg/ml) | no binding (tested: up to 100 µg/ml) | –
B3 | – | – | no binding (tested: up to 100 µg/ml) | no binding (tested: up to 100 µg/ml) | no binding (tested: up to 100 µg/ml) | IC50 of inhibition of the polyclonal T cell IFNγ ELISpot response to CD1a-K562 (n=6 donors); table row '77' [6]: 0.181 µg/mL
B4 | – | 0.141 µg/mL | no binding (tested: up to 100 µg/ml) | no binding (tested: up to 100 µg/ml) | no binding (tested: up to 100 µg/ml) | –
